Target: the molecule itself
Assay: crystal structure; PIV5 HN ectodomain 56-565 at ~10 mg/mL with a 1.2 molar excess of sialyllactose; 1.6 M ammonium sulfate, 0.1 M MES pH 6.5, 10% 1,4-dioxane, room temperature; space group I4, 2.5 Å

B1: PIV5 HN ectodomain (56-565) (domain or fragment)
chain: SGLGSITDLLNNILSVANQIIYNSAVALPLQLDTLESTLLTAIKSLQTSDKLEQNCSWSAALINDNRYINGINQFYFSIAEGRNLTLGPLLNMPSFIPTATTPEGCTRIPSFSLTKTHWCYTHNVILNGCQDHVSSNQFVSMGIIEPTSAGFPFFRTLKTLYLSDGVNRKSCSISTVPGGCMMYCFVSTQPERDDYFSAAPPEQRIIIMYYNDTIVERIINPPGVLDVWATLNPGTGSGVYYLGWVLFPIYGGVIKGTSLWNNQANKYFIPQMVAALCSQNQATQVQNAKSSYYSSWFGNRMIQSGILACPLRQDLTNECLVLPFSNDQVLMGAEGRLYMYGDSVYYYQRSNSWWPMTMLYKVTITFTNGQPSAISAQNVPTQQVPRPGTGDCSATNRCPGFCLTGVYADAWLLTNPSSTSTFGSEATFTGSYLNTATQRINPTMYIANNTQIISSQQFGSSGQEAAYGHTTCFRDTGSVMVYCIYIIELSSSLLGQFQIVPFIRQVTLS
notes: Hemagglutinin-neuraminidase (HN) of parainfluenza virus 5, ectodomain residues 56-565 (stalk 56-101, linker 102-117, head from I118); also called parainfluenza virus 5 hemagglutinin-neuraminidase ectodomain
  stoichiometry N: 4
